Measured values published in PMC7409301, “Natural Killer Cell Activation Receptor NKp30 Oligomerization Depends on Its N-Glycosylation” (Cancers, 2020).
Values joined by “and” are separate entries in the source; they are usually repeats but may differ in a detail not shown here. Identical values can stand only once.

Tests used:
[1] = solubility during deglycosylation in HEPES buffer; conditions: glycan lost; control: glycosylated B7-H6 (HEK293S GnTI−)
SEC-MALS = conditions: glycan lost; control: glycosylated NKp30_Stalk (HEK293T or HEK293S GnTI−)
[2] = sedimentation velocity AUC; conditions: glycan lost; control: NKp30_Stalk from HEK293S GnTI− (uniform glycans)
[3] = target: the molecule itself; assay: AUC; sedimentation velocity of wild-type B7-H6 at 0.5 mg/mL, c(s) distribution

B1: B7-H6: Endo F1 (protein)
parent chain: MTWRAAASTCAALLILLWALTTEGDLKVEMMAGGTQITPLNDNVTIFCNIFYSQPLNITSMGITWFWKSLTFDKEVKVFEFFGDHQEAFRPGAIVSPWRLKSGDASLRLPGIQLEEAGEYRCEVVVTPLKAQGTVQLEVVASPASRLLLDQVGMKENEDKYMCESSGFYPEAINITWEKQTQKFPHPIEISEDVITGPTIKNMDGTFNVTSCLKLNSSQEDPGTVYQCVVRHASLHTPLRSNFTLTAARHSLSETEKTDNFSIHWWPISFIGVGLVLLIVLIPWKKICNKSSSAYTPLKCILKHWNSFDTQTLKKEHLIFFCTRAWPSYQLQDGEAWPPEGSVNINTIQQLDVFCRQEGKWSEVPYVQAFFALRDNPDLCQCCRIDPALLTVTSGKSIDDNSTKSEKQTPREHSDAVPDAPILPVSPIWEPPPATTSTTPVLSSQPPTLLLPLQ
[1]
  stability_or_folding: decreases

B2: NKp30: Endo F1 (protein)
parent chain: MAWMLLLILIMVHPGSCALWVSQPPEIRTLEGSSAFLPCSFNASQGRLAIGSVTWFRDEVVPGKEVRNGTPEFRGRLAPLASSRFLHDHQAELHIRDVRGHDASIYVCRVEVLGLGVGTGNGTRLVVEKEHPQLGAGTVLLLRAGFYAVSFLSVAVGSTVYYQGKCLTWKGPRRQLPAVVPAPLPPPCGSSAHLLPPVPGG
SEC-MALS
  oligomerisation: abolishes
[2]
  oligomerisation: abolishes

B3: wild-type B7-H6 extracellular portion (with the odd cysteine Cys212) (domain or fragment, UniProt Q68D85 25-245, looked up)
chain: DLKVEMMAGGTQITPLNDNVTIFCNIFYSQPLNITSMGITWFWKSLTFDKEVKVFEFFGDHQEAFRPGAIVSPWRLKSGDASLRLPGIQLEEAGEYRCEVVVTPLKAQGTVQLEVVASPASRLLLDQVGMKENEDKYMCESSGFYPEAINITWEKQTQKFPHPIEISEDVITGPTIKNMDGTFNVTSCLKLNSSQEDPGTVYQCVVRHASLHTPLRSNFTL
modifications: N-glycosylated; disulfide bridges not linked correctly by mass spectrometry
notes: entire extracellular portion Asp25-Leu245 with two Ig-like domains; source: HEK293 cells, transient transfection, secreted, purified (IMAC, SEC); not shown: three amino acids left after cleavage of the secretion signal, N-terminal, kept
[3]
  stoichiometry N: 2 and 4
